These results are taken from paper PMC4489650, “Aurora-A-Dependent Control of TACC3 Influences the Rate of Mitotic Spindle Assembly” (PLoS Genetics, 2015).

As a reminder, the Kd is the constant that tells how readily two partners part at equilibrium.

Experiment [1] has as its target T1, complex of AurA-DN/TPX2^1-43 (UniProt O14965 122-403; Q9ULW0 1-43, D274N). As to the kind of experiment: NMR; residue pair 519/520, with TPX2 1-43.
Experiment [2] addresses T1, complex of AurA-DN/TPX2^1-43. As to the kind of experiment: NMR; residue pair 520/521, with TPX2 1-43.
Experiment [3] has as its target T2, AurA-DN (unphosphorylated Aurora-A 122–403 D274N) (UniProt O14965 122-403, D274N).
T2 sequence: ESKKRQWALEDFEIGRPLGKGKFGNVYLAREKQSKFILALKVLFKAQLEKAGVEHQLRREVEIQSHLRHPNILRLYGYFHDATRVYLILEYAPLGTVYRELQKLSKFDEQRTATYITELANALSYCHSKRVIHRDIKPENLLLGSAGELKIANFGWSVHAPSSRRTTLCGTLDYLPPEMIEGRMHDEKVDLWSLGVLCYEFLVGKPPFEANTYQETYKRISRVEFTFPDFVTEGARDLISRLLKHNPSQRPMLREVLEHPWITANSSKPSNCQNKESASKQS
The experiment can be described thus: NMR; residue pair 520/521.

In experiment [4] the target is T3, AurA-DN (unphosphorylated Aurora-A 122–403 D274N) (UniProt O14965 122-403, D274N).
T3 construct: source: recombinant, expressed from pET30TEV, purified (Chelating Sepharose, SEC), dialysed into NMR buffer with 5 mM ADP/MgCl2
T3 sequence (looked up): T2 sequence
As to the kind of experiment: NMR titration; 15N-labelled TACC3act (75 uM constant in titrations) with unlabelled AurA-DN or the AurA-DN/TPX2^1-43 complex at 0-225 uM; 1H-15N HSQC; 20 mM potassium phosphate pH 7.0, 50 mM NaCl, 1 mM DTT, 0.02% sodium azide, 5 mM ADP/MgCl2; chemical shift changes fit to Eq 1. As to conditions: both partners purified.

Experiment [5] has as its target T4, complex of AurA-DN/TPX2^1-43 (UniProt O14965 122-403; Q9ULW0 1-43, D274N).
T4 construct: TPX2, first 43 amino acids; Added as a complex in the NMR titration; source: mixed from the purified recombinant proteins m8 and m12
T4 sequence (looked up) 1: T2 sequence
T4 sequence (looked up) 2: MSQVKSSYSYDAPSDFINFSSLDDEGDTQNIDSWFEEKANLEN
Described as above. As to conditions: both partners purified.

In a further experiment the target is T5, AurA-DN C290A, C393A (UniProt O14965 122-403, D274N | C290A | C393A).
T5 construct: also called Aurora-A kinase domain (SEC); source: recombinant, purified; not further stated
T5 sequence (looked up): T2 sequence with C169A, C272A
The experiment can be described thus: SEC; AurA-DN C290A, C393A, TPX2^1-43 and TACC3act alone and in complex on a HiLoad Superdex 200 16/60 column; fractions analysed by SDS-PAGE. To be noted: both partners purified. For orientation: Size exclusion chromatography separates by hydrodynamic size, large species first.

The target of experiment [6] is T6, Aurora-A 122–403 C290A, C393A (UniProt O14965 122-403, C290A | C393A, labelled with NT-647-NHS dye).
T6 construct: also called labelled Aurora-A; source: recombinant, expressed from pET30TEV, purified (Chelating Sepharose, SEC)
T6 sequence (looked up): T2 sequence with N153D, C169A, C272A
As to the kind of experiment: MST; 50 nM NT-647-labelled Aurora-A 122-403 C290A, C393A; TACC3act-H6c constructs 0.2-3950 uM; 50 mM Tris pH 7.6, 150 mM NaCl, 10 mM MgCl2, 5 mM beta-mercaptoethanol, 0.05% TWEEN 20; 25 C; one-site fit (Eq 2). To be noted: both partners purified.

Experiment [7] concerns the target T7, TACC3-H6c phospho-null mutant (SA: S34A, S552A, S558A) (human, UniProt Q9Y6A5 1-838, S34A | S552A | S558A).
T7 construct: TACC3, human, full length, three Aurora-A phosphorylation sites mutated to alanine; source: recombinant, expressed from pET-44C3, purified; not shown: His6, C-terminal, kept
The experiment can be described thus: pull-down; GST co-precipitation: 100 ug GST-AurA-DN (2 uM in the TPX2 gradient experiment, with 5 uM TACC3act-H6c and 1-50 uM His6-TPX2^1-43) immobilised on Gluthathione Sepharose 4B; 100 ug TACC3 or TPX2^1-43 added, 2 hrs at 4 C; 50 mM Tris pH 7.5, 150 mM NaCl, 5 mM MgCl2, 5 mM beta-mercaptoethanol, 0.02% TWEEN 20; SDS-PAGE and anti-His6 blot. As to conditions: both partners purified.

Experiment [8] addresses T8, TACC3-H6c (full-length human TACC3 with a C-terminal non-cleavable His-tag) (human, UniProt Q9Y6A5 1-838).
T8 construct: TACC3, human, full length; also called full-length TACC3; TACC3-H6c WT; source: recombinant, expressed from pET-44C3, purified; not shown: His6, C-terminal, kept
Described as above. To be noted: both partners purified.

In experiment [9] the target is T9, TACC3-H6c phospho-mimic mutant (SE: S34, S552 and S558 mutated to glutamic acid) (human, UniProt Q9Y6A5 1-838, S34 to glutamic acid | S552 to glutamic acid | S558 to glutamic acid).
T9 construct: TACC3, human, full length, three Aurora-A phosphorylation sites mutated to glutamic acid; source: recombinant, expressed from pET-44C3, purified; not shown: His6, C-terminal, kept
The experiment is described as above. To be noted: both partners purified.

Numbering of substitutions follows the chain as printed. In names and notes the source's numbering stands.

B1: TACC3act (human TACC3 residues 519–563) (domain or fragment, UniProt Q9Y6A5 519-563, looked up)
chain: ELKEESFRDPAEVLGTGAEVDYLEQFGTSSFKESALRKQSLYLKF
notes: also called ^15N-labelled TACC3act; source: recombinant, expressed from pETM6T1, purified (SEC); 15N- or 15N/13C-labelled for NMR
As to B1, the Kd worked out at 0.6 µM in [1]; 1.6 µM in experiment [2]; 7.5 µM in experiment [3]; 8.2 ± 0.8 µM in experiment [4]; 1.1 ± 1.2 µM in experiment [5]. Moreover, the binding result with AurA-DN C290A, C393A is recorded as “binds”.

B2: TACC3act-H6c (human TACC3 residues 519–563 with a C-terminal His-tag) (domain or fragment, UniProt Q9Y6A5 519-563, looked up)
chain: B1 chain
notes: also called TACC3act-H6c WT; WT TACC3act; source: recombinant, construct made by the same method as TACC3-H6c, purified; not shown: His6, C-terminal, kept
In turn, B2 had a Kd in experiment [6] of 5.7 ± 0.4 µM.

B3: TACC3act-H6c F525A (domain or fragment, human, UniProt Q9Y6A5 519-563, looked up)
chain: B1 chain with F7A
notes: also called F525A mutant; source: recombinant, purified; not shown: His6, C-terminal, kept
In experiment [6], B3 displayed an equilibrium dissociation constant (Kd) of 152 ± 9.3 µM.

B4: GST-AurA-DN (GST fused to Aurora-A catalytic domain 122–403 D274N) (domain or fragment, UniProt O14965 122-403, looked up)
chain: T2 sequence
notes: also called GST-Aurora-A; source: recombinant, expressed from pGEX-cs, purified (Gluthathione Sepharose 4B, SEC); not shown: GST, N-terminal, kept
Take B4: the binding result in experiment [7], in experiment [8] and in [9] was “binds” throughout.
